Columns and labels:
HeLa Kyoto [1] = test: solubility in G1/S (NP-40 vs SDS abundance) (log2 ratio); higher = more soluble; conditions: cell cycle stage: G1/S
HeLa Kyoto [2] = test: solubility change mitosis vs G1/S (difference of NP-40 vs SDS log2 ratios) (log2 ratio difference); higher = more soluble in mitosis
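Throughout, for solubility change mitosis vs G1/S (difference of NP-40 vs SDS log2 ratios): synchronized HeLa Kyoto cells (double thymidine block for G1/S, nocodazole release for mitosis), protein amounts in NP-40 versus SDS lysates quantified by mass spectrometry, three biological replicates.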
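Throughout, for solubility in G1/S (NP-40 vs SDS abundance): HeLa Kyoto cells arrested at G1/S by double thymidine block, proteins quantified by TMT10plex mass spectrometry in mild NP-40 versus SDS extracts, three biological replicates.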

Substance | solubility in G1/S (log2) (HeLa Kyoto [1]) | solubility change mitosis (log2) (HeLa Kyoto [2])
MALKGRALYDFHSENKEEISIQQDEDLVIFSETSLDGWLQGQNSRGETGLFPASYVEIVRSGISTNHADYSSSPAGSPGAQVSLYNSPSVASPARSGGGSGFLSNQGSFEEDDDDDWDDWDDGCTVVEEPRAGGLGTNGHPPLNLSYPGAYPSQHMAFRPKPPLERQDSLASAKRGSVVGRNLNRFSCFVRSGVEAFILGDVPMMAKIAETYSIEMGPRGPQWKANPHPFACSVEDPTKQTKFKGIKSYISYKLTPTHAASPVYRRYKHFDWLYNRLLHKFTVISVPHLPEKQATGRFEEDFIEKRKRRLILWMDHMTSHPVLSQYEGFQHFLSCLDDKQWKMGKRRAEKDEMVGASFLLTFQIPTEHQDLQDVEDRVDTFKAFSKKMDDSVLQLSTVASELVRKHVGGFRKEFQKLGSAFQAISHSFQMDPPFCSEALNSAISHTGRTYEAIGEMFAEQPKNDLFQMLDTLSLYQGLLSNFPDIIHLQKGAFAKVKESQRMSDEGRMVQDEADGIRRRCRVVGFALQAEMNHFHQRRELDFKHMMQNYLRQQILFYQRVGQQLEKTLRMYDNL [SNX33] | -0.337 | -0.033
MSRRTRCEDLDELHYQDTDSDVPEQRDSKCKVKWTHEEDEQLRALVRQFGQQDWKFLASHFPNRTDQQCQYRWLRVLNPDLVKGPWTKEEDQKVIELVKKYGTKQWTLIAKHLKGRLGKQCRERWHNHLNPEVKKSCWTEEEDRIICEAHKVLGNRWAEIAKMLPGRTDNAVKNHWNSTIKRKVDTGGFLSESKDCKPPVYLLLELEDKDGLQSAQPTEGQGSLLTNWPSVPPTIKEEENSEEELAAATTSKEQEPIGTDLDAVRTPEPLEEFPKREDQEGSPPETSLPYKWVVEAANLLIPAVGSSLSEALDLIESDPDAWCDLSKFDLPEEPSAEDSINNSLVQLQASHQQQVLPPRQPSALVPSVTEYRLDGHTISDLSRSSRGELIPISPSTEVGGSGIGTPPSVLKRQRKRRVALSPVTENSTSLSFLDSCNSLTPKSTPVKTLPFSPSQFLNFWNKQDTLELESPSLTSTPVCSQKVVVTTPLHRDKTPLHQKHAAFVTPDQKYSMDNTPHTPTPFKNALEKYGPLKPLPQTPHLEEDLKEVLRSEAGIELIIEDDIRPEKQKRKPGLRRSPIKKVRKSLALDIVDEDVKLMMSTLPKSLSLPTTAPSNSSSLTLSGIKEDNSLLNQGFLQAKPEKAAVAQKPRSHFTTPAPMSSAWKTVACGGTRDQLFMQEKARQLLGRLKPSHTSRTLILS [MYBL2] | 0.219 | -0.187
MKLLRRAWRRRAALGLGTLALCGAALLYLARCAAEPGDPRAMSGRSPPPPAPARAAAFLAVLVASAPRAAERRSVIRSTWLARRGAPGDVWARFAVGTAGLGAEERRALEREQARHGDLLLLPALRDAYENLTAKVLAMLAWLDEHVAFEFVLKADDDSFARLDALLAELRAREPARRRRLYWGFFSGRGRVKPGGRWREAAWQLCDYYLPYALGGGYVLSADLVHYLRLSRDYLRAWHSEDVSLGAWLAPVDVQREHDPRFDTEYRSRGCSNQYLVTHKQSLEDMLEKHATLAREGRLCKREVQLRLSYVYDWSAPPSQCCQRREGIP [B3GALT6] | -0.748 | 0.135
MSETDHIASTSSDKNVGKTPELKEDSCNLFSGNESSKLENESKLLSLNTDKTLCQPNEHNNRIEAQENYIPDHGGGEDSCAKTDTGSENSEQIANFPSGNFAKHISKTNETEQKVTQILVELRSSTFPESANEKTYSESPYDTDCTKKFISKIKSVSASEDLLEEIESELLSTEFAEHRVPNGMNKGEHALVLFEKCVQDKYLQQEHIIKKLIKENKKHQELFVDICSEKDNLREELKKRTETEKQHMNTIKQLESRIEELNKEVKASRDQLIAQDVTAKNAVQQLHKEMAQRMEQANKKCEEARQEKEAMVMKYVRGEKESLDLRKEKETLEKKLRDANKELEKNTNKIKQLSQEKGRLHQLYETKEGETTRLIREIDKLKEDINSHVIKVKWAQNKLKAEMDSHKETKDKLKETTTKLTQAKEEADQIRKNCQDMIKTYQESEEIKSNELDAKLRVTKGELEKQMQEKSDQLEMHHAKIKELEDLKRTFKEGMDELRTLRTKVKCLEDERLRTEDELSKYKEIINRQKAEIQNLLDKVKTADQLQEQLQRGKQEIENLKEEVESLNSLINDLQKDIEGSRKRESELLLFTERLTSKNAQLQSESNSLQSQFDKVSCSESQLQSQCEQMKQTNINLESRLLKEEELRKEEVQTLQAELACRQTEVKALSTQVEELKDELVTQRRKHASSIKDLTKQLQQARRKLDQVESGSYDKEVSSMGSRSSSSGSLNARSSAEDRSPENTGSSVAVDNFPQVDKAMLIERIVRLQKAHARKNEKIEFMEDHIKQLVEEIRKKTKIIQSYILREESGTLSSEASDFNKVHLSRRGGIMASLYTSHPADNGLTLELSLEINRKLQAVLEDTLLKNITLKENLQTLGTEIERLIKHQHELEQRTKKT [CCDC186] | 0.232 | 0.000436
MALMQELYSTPASRLDSFVAQWLQPHREWKEEVLDAVRTVEEFLRQEHFQGKRGLDQDVRVLKVVKVGSFGNGTVLRSTREVELVAFLSCFHSFQEAAKHHKDVLRLIWKTMWQSQDLLDLGLEDLRMEQRVPDALVFTIQTRGTAEPITVTIVPAYRALGPSLPNSQPPPEVYVSLIKACGGPGNFCPSFSELQRNFVKHRPTKLKSLLRLVKHWYQQYVKARSPRANLPPLYALELLTIYAWEMGTEEDENFMLDEGFTTVMDLLLEYEVICIYWTKYYTLHNAIIEDCVRKQLKKERPIILDPADPTLNVAEGYRWDIVAQRASQCLKQDCCYDNRENPISSWNVKRARDIHLTVEQRGYPDFNLIVNPYEPIRKVKEKIRRTRGYSGLQRLSFQVPGSERQLLSSRCSLAKYGIFSHTHIYLLETIPSEIQVFVKNPDGGSYAYAINPNSFILGLKQQIEDQQGLPKKQQQLEFQGQVLQDWLGLGIYGIQDSDTLILSKKKGEALFPAS [OASL] | -0.811 | 0.156
MFRIEGLAPKLDPEEMKRKMREDVISSIRNFLIYVALLRVTPFILKKLDSI [TOMM5] | -0.518 | -0.172
MERLRDVRERLQAWERAFRRQRGRRPSQDDVEAAPEETRALYREYRTLKRTTGQAGGGLRSSESLPAAAEEAPEPRCWGPHLNRAATKSPQSTPGRSRQGSVPDYGQRLKANLKGTLQAGPALGRRPWPLGRASSKASTPKPPGTGPVPSFAEKVSDEPPQLPEPQPRPGRLQHLQASLSQRLGSLDPGWLQRCHSEVPDFLGAPKACRPDLGSEESQLLIPGESAVLGPGAGSQGPEASAFQEVSIRVGSPQPSSSGGEKRRWNEEPWESPAQVQQESSQAGPPSEGAGAVAVEEDPPGEPVQAQPPQPCSSPSNPRYHGLSPSSQARAGKAEGTAPLHIFPRLARHDRGNYVRLNMKQKHYVRGRALRSRLLRKQAWKQKWRKKGECFGGGGATVTTKESCFLNEQFDHWAAQCPRPASEEDTDAVGPEPLVPSPQPVPEVPSLDPTVLPLYSLGPSGQLAETPAEVFQALEQLGHQAFRPGQERAVMRILSGISTLLVLPTGAGKSLCYQLPALLYSRRSPCLTLVVSPLLSLMDDQVSGLPPCLKAACIHSGMTRKQRESVLQKIRAAQVHVLMLTPEALVGAGGLPPAAQLPPVAFACIDEAHCLSQWSHNFRPCYLRVCKVLRERMGVHCFLGLTATATRRTASDVAQHLAVAEEPDLHGPAPVPTNLHLSVSMDRDTDQALLTLLQGKRFQNLDSIIIYCNRREDTERIAALLRTCLHAAWVPGSGGRAPKTTAEAYHAGMCSRERRRVQRAFMQGQLRVVVATVAFGMGLDRPDVRAVLHLGLPPSFESYVQAVGRAGRDGQPAHCHLFLQPQGEDLRELRRHVHADSTDFLAVKRLVQRVFPACTCTCTRPPSEQEGAVGGERPVPKYPPQEAEQLSHQAAPGPRRVCMGHERALPIQLTVQALDMPEEAIETLLCYLELHPHHWLELLATTYTHCRLNCPGGPAQLQALAHRCPPLAVCLAQQLPEDPGQGSSSVEFDMVKLVDSMGWELASVRRALCQLQWDHEPRTGVRRGTGVLVEFSELAFHLRSPGDLTAEEKDQICDFLYGRVQARERQALARLRRTFQAFHSVAFPSCGPCLEQQDEERSTRLKDLLGRYFEEEEGQEPGGMEDAQGPEPGQARLQDWEDQVRCDIRQFLSLRPEEKFSSRAVARIFHGIGSPCYPAQVYGQDRRFWRKYLHLSFHALVGLATEELLQVAR [RECQL4] | -0.103 | 0.0659
MSELSDEASEPELLNRSLSMWHGLGTQVSGEELDVPLDLHTAASIGQYEVVKECVQRRELDLNKKNGGGWTPLMYASYIGHDTIVHLLLEAGVSVNVPTPEGQTPLMLASSCGNESIAYFLLQQGAELEMKDIQGWTALFHCTSAGHQHMVRFLLDSGANANVREPICGFTPLMEAAAAGHEIIVQYFLNHGVKVDARDHSGATARMLAKQYGHMKIVALMDTYSPSLPKSLYRSPEKYEDLSSSDESCPAPQRQRPCRKKGVSIHEGPRALARITGIGLGGRAPRPRYEQAPPRGYVTFNSSGENPLEEEGLCCRDVTSPINERDVESSSSSSSREEHAFCANLGPVQSSSSSEGLARAQGLSSEASVESNEDSDHACKSSARKQAKSYMKTKNPDSQWPPRAATDREGFLAESSPQTQRAPYSGPQDLAALLEQIGCLKYLQVFEEQDVDLRIFLTLTESDLKEIGITLFGPKRKMTSAIARWHSSARPPGDALELAYADRLEAEMQELAIQLHKRCEEVEATRGQVCQEQELRAVVESCLLEQDRAREDLQARLRETWALARDAALVLDQLRACQAELSSRVRQDQPPGAATLGLAVPPADSKGWQASLQAMSLPELSGALEDRVREMGQALCLVTQSLEKLQVLNGKKWRET [ANKS3] | -0.0739 | 0.0304
MEAKTLGTVTPRKPVLSVSARKIKDNAADWHNLILKWETLNDAGFTTANNIANLKISLLNKDKIELDSSSPASKENEEKVCLEYNEELEKLCEELQATLDGLTKIQVKMEKLSSTTKGICELENYHYGEESKRPPLFHTWPTTHFYEVSHKLLEMYRKELLLKRTVAKELAHTGDPDLTLSYLSMWLHQPYVESDSRLHLESMLLETGHRAL [CINP] | 0.148 | 0.525
MDSPWDELALAFSRTSMFPFFDIAHYLVSVMAVKRQPGAAALAWKNPISSWFTAMLHCFGGGILSCLLLAEPPLKFLANHTNILLASSIWYITFFCPHDLVSQGYSYLPVQLLASGMKEVTRTWKIVGGVTHANSYYKNGWIVMIAIGWARGAGGTIITNFERLVKGDWKPEGDEWLKMSYPAKVTLLGSVIFTFQHTQHLAISKHNLMFLYTIFIVATKITMMTTQTSTMTFAPFEDTLSWMLFGWQQPFSSCEKKSEAKSPSNGVGSLASKPVDVASDNVKKKHTKKNE [TMEM38B] | -0.0322 | -0.17
KIAA0368 | 0.0203 | -0.156
CEP192 | -0.295 | -0.137

— the supplement of paper PMC5998384
